Source: PMC4551934, “RNA aptamer inhibitors of a restriction endonuclease”

T1: BamHI(E111A) restriction endonuclease (UniProt P23940 1-213, E111A)
T1 sequence: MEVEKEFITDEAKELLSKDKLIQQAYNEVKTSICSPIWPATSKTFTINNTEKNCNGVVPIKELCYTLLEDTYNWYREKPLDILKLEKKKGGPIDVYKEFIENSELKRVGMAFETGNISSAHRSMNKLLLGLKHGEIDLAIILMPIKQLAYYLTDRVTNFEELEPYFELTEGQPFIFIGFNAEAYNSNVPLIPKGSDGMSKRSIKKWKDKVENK


How the values were obtained:
[1] = biological target: T1, BamHI(E111A) restriction endonuclease; test: EMSA; 20 nM protein; Kd EMSA: 10 mM Bis-Tris-Propane-HCl pH 7, 10 mM MgCl2, 100 ug/ml BSA, 37 C, 30 min; screen EMSA in selection buffers, 37 C: 10 mM HEPES pH 7.5 with 400 mM NaCl/; settings: protein: commercial; chain copies: 2; label: 32P; hairpin
[2] = biological target: KpnI restriction endonuclease (UniProt P25237 1-218); test: cleavage inhibition; 20 nM DNA probe N10; Kd EMSA: 10 mM Bis-Tris-Propane-HCl pH 7, 10 mM MgCl2, 100 ug/ml BSA, 37 C, 30 min; screen EMSA in selection buffers, 37 C: 10 mM HEPES pH 7.5 with 400 mM NaCl/; settings: protein: commercial, chain copies: 2
Chain of KpnI restriction endonuclease (P25237 whole entry): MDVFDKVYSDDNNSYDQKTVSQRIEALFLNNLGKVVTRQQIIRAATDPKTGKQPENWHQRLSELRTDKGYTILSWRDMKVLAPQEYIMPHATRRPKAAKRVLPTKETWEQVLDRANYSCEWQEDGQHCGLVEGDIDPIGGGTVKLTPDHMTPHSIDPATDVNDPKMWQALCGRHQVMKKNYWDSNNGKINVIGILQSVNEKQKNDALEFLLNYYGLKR

Binder | binding result [1] | IC50 ([2]; label: 32P, hairpin) [nM] | IC50 ([2]; hairpin) [nM] | IC50 [2] [nM]
anti-KpnI aptamer 20 (structured_RNA) RNA: GGGAUAUCCUUCAUGAUUCGGAAAAGCGUAACCGCGGCCAAUCAUGCAUGAAGCGUUCCAUAUUUUU | no binding | 36.1 ± 3.9 |  | 
anti-KpnI aptamer 30 (structured_RNA) RNA: GGGAUAUCCUUCAUGAUUCGGAAAAGCGUAACCGCGGCCGAUCAUGCAUGAAGCGUUCCAUAUUUUU | no binding | 23.1 ± 0.8 |  | 
GGGCAUGAUUCGGAAAAGCGUAACCGCGGCCAAUCAUG (structured_RNA) [aptamer 20s (38 nt)] |  |  | 13 ± 1.5 | 
GGGCAUGAUUCGGAUAUGCGUAACCGCGGCCAAUCAUG (structured_RNA) [20_AAA] |  |  |  | 104000
anti-KpnI aptamer 29 (16/23/29) (structured_RNA) RNA: GGGAUAUCCCUACAUGAUAAUCGGGUGAGUAAGGCCUAAACAUCAUGCAUGAAGCGUUCCAUAUUUUU | no binding | 153 ± 11 |  | 
anti-KpnI aptamer 24 (structured_RNA) RNA: GGGAUAUCCUUCAUGGUGUGAUUAAACGUAAUCUCAAUCGAUCAUGCAUGAAGCGUUCCAUAUUUUU | no binding |  |  | 
GGGUCGGAAAAGCGUAACCGCGGCCA (structured_RNA) [20_26 nt] |  |  |  | 77000
